Where no end group is shown, it is not given here.

The IC50 is the midpoint of a concentration-inhibition curve.

The target of one assay is T1, HMGB1 peptide 106-123 (also: biotinylated, site and spacer not given here).
T1 peptide: CSEYRPKIKGEHPGLSIG
As to the kind of experiment: ELISA, biotinylated peptide on NeutrAvidin plate, antibody serially diluted from 10 ug/ml, anti-human IgG-HRP, OD 450. On the procedure: (§1) The plate was then blocked with 4% milk powder dissolved in PBS at 37° C. for 1 hour. The blocking solution was removed and replaced with human anti-HMG1 antibodies at various concentrations (see FIGS. 5A-B). […] HRP activity was detected with Sureblue HRP substrate (KPL). Plates were read at 450 nm using a Kinetic Microplate Reader (Molecular Devices). […] After washing and blocking with 1% BSA in PBS, the biotinylated peptides were individually added into the avidin coated wells and incubated for 30 min at room temperature. The serial diluted antibody G4, S16 and S6 at the initial concentration at 10 μg/ml were then transferred into the wells followed by adding mouse anti human IgG-HRP conjugate (Pierce). Detection was accomplished by adding 50 μl of tetramethylbenzidine (TMB) substrate (KPL) and the absorbance was read at 450 nm.
On the technique in general: An ELISA detects its analyte on a solid surface through an enzyme-linked reagent.

Assay [1] concerns the target T2, recombinant rat HMGB-1 labelled with europium (rat, UniProt P63159 1-215, limits assumed, Eu label, molar ratio HMGB-1 to Eu 1:5).
T2 construct: also called Europium-labeled HMGB-1
T2 sequence (looked up): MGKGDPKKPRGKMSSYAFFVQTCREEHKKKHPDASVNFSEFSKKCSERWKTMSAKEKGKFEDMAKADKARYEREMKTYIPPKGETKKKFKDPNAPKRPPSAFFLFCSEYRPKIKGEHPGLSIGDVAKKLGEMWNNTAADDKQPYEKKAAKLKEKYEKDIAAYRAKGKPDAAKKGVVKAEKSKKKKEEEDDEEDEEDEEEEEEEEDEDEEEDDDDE
Kind of assay: inhibition of binding of 2 nM Eu-labelled recombinant rat HMGB-1 to THP-1 cells. The method, then: HMG1 binding to THP-1 Cells: Recombinant rat HMGB-1 was labeled using Eu-labelling Kit from PerkinElmer. Molar ratio of HMGB-1 to Eu is 1:5. THP-1 were cultured as the protocol from ATCC. Cells were harvested and suspended at concentration 1×10⁶/ml in assay buffer containing 1×DELFIA L*R binding buffer (PerkinElmer), 50% of DELFIA stabilizer (PerkinElmer) and 0.05% of sodium azide. 100 μl of cells (1×10⁵) was added into wells in 96 well cell culture plate. The plate was incubated with gentle shaking at 4° C. for one hour. 100 μl of assay buffer containing 2 nM of Europium-labeled HMGB-1 mixed with various concentrations (333, 166.5, 83.25, 41.6, 20.8, 10.4 and 5.2 nM) of human anti-HMGB1 antibodies E11 or G2 or soluble human RAGE-Fc, were added into each wells respectively. After one hour incubation with gentle shaking at 4° C., the cells were washed four times with 1×L*R wash buffer (PerkinElmer) by centrifuging at 1200 rpm×5 min. 200 μl of enhancement solution was added into each well to dissociate and enhance Eu fluorescence at 615 nm. The fluorescence was measured with Wallac Victor Fluorometer. Assay was performed in triplicate and human antibody R3-47 was used the negative isotype control.

Assay [2] has as its target T3, HMGB1 in joint lysate of adjuvant induced arthritis (AIA) rats (rat, UniProt P63159 2-215).
T3 construct: also called HMGB1 from arthritis joints; joint lysate HMGB1
T3 sequence (looked up): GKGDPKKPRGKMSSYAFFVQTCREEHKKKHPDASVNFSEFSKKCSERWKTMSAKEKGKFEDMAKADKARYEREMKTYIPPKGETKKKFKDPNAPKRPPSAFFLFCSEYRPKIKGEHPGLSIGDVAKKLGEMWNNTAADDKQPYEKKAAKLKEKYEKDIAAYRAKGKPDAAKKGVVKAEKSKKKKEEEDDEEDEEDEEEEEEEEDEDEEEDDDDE
As to the kind of experiment: immunoprecipitation from AIA rat joint lysate, Western blot; paragraph 81 gives lane 2 as S16. On the procedure: Immunoprecipitation and Western Blot: Anti-HMGB1 mAbs (G4 and S6) and isotype control were first biotinylated using EZ-Link Sulfo-NHS-LC-Biotin as instructed by the manufacturer (Pierce). After labeling, the mAb was tested for binding to HMGB1 by ELISA with unlabeled mAbs as controls. The biological samples, joint lysate (30 μl), was mixed with […] biotinylated G4, S6 or isotype control overnight at 4° C. in 300 μl IP buffer [containing 1×PBS, pH 7.2 (Invitrogen), 0.1% Tween 20, 0.5 M sodium chloride, 10 mM sodium butyrate, and a 1:100 dilution of Phosphatase Inhibitor Cocktail I (Sigma)]. For sepsis sera, Tween 20, sodium chloride, sodium butyrate, and Phosphatase Inhibitor Cocktail I were added to 500 μl sera with the same final concentration as IP buffer. Streptavidin Sepharose beads (GE Healthcare) were blocked in 4% BSA-PBS overnight at 4° C., then washed three times with PBS and resuspended in 1×PBS resulting in 50% slurry. The bead slurry (60 μl) was then added to the overnight mAb/sample mixture and mixed for 20 minutes at room temperature. The beads were washed once with PBS, five times with IP Buffer and then washed twice with PBS by spinning at 1000 g for two min. […] The bands were detected by LumiGlo substrate solution (KPL) after washing.
For orientation: A western blot detects proteins with antibodies after separation by electrophoresis.

The next assay has as its target T4, HMGB1 peptide 166-183 (UniProt P09429 166-183, also: biotinylated, site not given here).
T4 peptide (looked up): GKPDAAKKGVVKAEKSKK
Kind of assay: ELISA, biotinylated peptide on NeutrAvidin plate, antibody serially diluted from 10 ug/ml, anti-human IgG-HRP, OD 450. On the procedure:
as §1

The next assay has as its target T5, HMGB1 peptide 179-186 (UniProt P09429 179-186, also: biotinylated, site not given here).
T5 peptide (looked up): EKSKKKKE
The assay is described as above. The method, then:
as §1

B1: human anti-HMG1 antibody G4 (antibody, IgG1, V domains shown)
VH: EVQLLESGGGLVQPGGSLRLSCAASGFTFSWYDMTWVRQAPGKGLEWVSSISPSGGYTKYADSVKGRFTISRDNSKNTLYLQMNSLRAEDTAVYYCTTEFYDYLDVWGKGTTVTVSS
VL: DIQMTQSPGTLSLSPGEGATLSCRASQSVSSTYLAWYQQKPGQAPRLLIYEASKRATGTPARFSGSGSGTDFTLSISSLEPEDFAVYYCQHRHNWPPQWTFGQGTKVEVK
notes: full length IgG1 made from a human Fab phage clone; also called ATCC PTA-6258
As for B1, in the assay with HMGB1 peptide 106-123, the binding result was “binds”.

B2: human anti-HMG1 antibody E11 (antibody, IgG1, V domains shown)
VH: EVQLLESGGGLVQPGGSLRLSCAASGFTFSRYQMNWVRQAPGKGLEWVSSISPSGGHTHYADSVKGRFTISRDNSKNTLYLQMNSLRAEDTAVYYCAKDGRQGKISTVDHWGQGTLVTVSS
VL: DIQMTQSPGTLSLSPGERATLSCRASQSVRSNFLAWYQQKPGQAPRLLIYGASRRASGIPDRFSGSGFGADFTLSISRLEPEDFAVYYCQQYGSSPNTFGQGSRVEIK
notes: full length IgG1 made from a human Fab phage clone
As for B2, the half-maximal inhibitory concentration (IC50) in assay [1] worked out at 48.1 nM.

B3: human anti-HMG1 antibody S16 (antibody, IgG1, V domains shown)
VH: EVQLLESGGGLVQPGGSLRLSCAASGFTFSWYSMLWVRQAPGKGLEWVSYISPSGGFTNYADSVKGRFTISRDNSKNTLYLQMNSLRAEDTAVYYCARWDYNSGWYYDHWGQGTLVTVSS
VL: DIQMTQSPDTLSLSPGERATLSCRASQSVNSRNLAWYQQKPGQAPRLLIYGASTRATGIPDRFSGSVSGTEFTLTISSLQPDDFATYYCQQYNSYFTFGQGTKLEIK
notes: full length IgG1 made from a human Fab phage clone; also called ATCC PTA-6259
On to B3, for which the binding result (in assay [2]; with HMGB1 peptide 166-183; with HMGB1 peptide 179-186) was “binds” each time.

Values taken from US20110287023A1 (AstraZeneca / MedImmune, published 2011).
